Data from patent US20220243184, “ENGINEERED Cas-Transposon SYSTEM FOR PROGRAMMABLE AND SITE-DIRECTED DNA TRANSPOSITIONS” (THE TRUSTEES OF COLUMBIA UNIVERSITY IN THE CITY OF NEW YORK, published 2022).

Target: Himar1C9-XTEN-dCas9 (Himar-dCas9) (synthetic fusion (Haematobia irritans …, UniProt Q99ZW2 SEQ:1-1732))
Assay: no gRNA; baseline insertion hotspot
Settings: tags: C-terminal 6xHis; chain copies: 2 inferred
Procedure: FIG. 2A through FIG. 2C. Himar-dCas9 specificity is dependent on gRNA spacing and target site. (FIG. 2A) Illustration of gRNA strand orientation and spacings to TA insertion site gRNA1 (SEQ ID NO: 53) and gRNA2 (SEQ ID No: 54) and target DNA (SEQ ID No: 55). (FIG. 2B) PCR analysis of transposon-target junctions from in vitro reactions containing 30 nM Himar-dCas9/gRNA complex, 2.27 nM transposon donor DNA, and 2.27 nM target DNA. Reactions (n=3) were run using gRNAs with spacings between 5 and 18 bp from the TA insertion site. Non-targeting gRNA (gRNA_5), no gRNA, and no transposase controls were also performed. Arrowheads indicate expected site-specific PCR products for each gRNA. Error bars indicate standard deviation. (FIG. 2C) Transposon sequencing results for reactions with no gRNAs (left, n=4) or with gRNA_4 (n=3), gRNA_8 (n=3), gRNA_12 (n=3), or gRNA_5 (n=3). The baseline random distribution of transposons along the recipient plasmid in each panel with a gRNA is shown in light gray.
To assess the distribution of transposon insertions around the target pGT-B1 plasmid, transposon sequencing was performed on transposition products resulting from three GFP-targeting gRNAs (gRNA_4, gRNA_8, and gRNA_12), a non-targeting gRNA, and no gRNA (FIG. 2C and FIG. 8). […]

B1: pGT-B1 position 5999 T/A-rich insertion site (dsDNA)
DNA 1: GCGAATTTTAAAATTCGC
DNA 2: GCGAATTTTAAAATTCGC
  binding result: binds
